From patent publication US20150374394A1, “SONOLYSIS WITH BIODEGRADABLE NANOPARTICLES” (THE BOARD OF TRUSTEES OF THE UNIVERSITY OF ARKANSAS, priority 2012, published 2015)

Tested on: clots formed from pooled rabbit plasma with rabbit blood cells
Assay: In vitro sonothrombolysis (STBL) of clots with MBs, CPDL, tPA and/or 450 nm StNPs, pulsed 1 MHz ultrasound
Details: pulsed 1 MHz ultrasound 15 min, in bovine calf serum, 0.5 mL/min; control ultrasound alone; 3 μm MBs, 0.1 mg/ml tPA, 0.06% w/V CPDL nanoemulsion
Method: FIG. 1 depicts a graph showing the potentiation of sonothrombolysis (STBL) efficacy by microbubbles (MBs) and/or a nanoemulsion of cyclopentadecanolide with or without tissue plasminogen activator (tPA). […] STBL was performed with fibrin-rich clots (see Example 2) using pulsed, 1 MHz ultrasound for 15 min. The MBs, tPA, StNPs etc. were suspended in bovine calf serum and introduced at a flow rate of 0.5 mL/min. STBL efficacy is reported as % clot lysis. Abbreviations: US=ultrasound; MBs=microbubbles; CPDL=cyclopentadecanolide; StNPs=starch nanoparticles; tPA=tissue plasminogen activator.
The clots used in these experiments were formed by mixing pooled rabbit plasma with rabbit blood cells (final volume equal to 2 mL; the volume of whole rabbit blood from which the cells were obtained), incubating this mixture for 24 h at 37° C. and then curing the formed clots for 24 h at 5° C. […] The StNPs were diluted to have an Optical Density reading at 530 nm (OD530) of 1.0. […] STBL efficacy was measured as the percent of the initial clot mass that was lost from the clot during the 15 min treatment time.

B1: tissue plasminogen activator (protein, UniProt P00750 36-562, looked up)
Tissue-type plasminogen …: SYQVICRDEKTQMIYQQHQSWLRPVLRSNRVEYCWCNSGRAQCHSVPVKSCSEPRCFNGGTCQQALYFSDFVCQCPEGFAGKCCEIDTRATCYEDQGISYRGTWSTAESGAECTNWNSSALAQKPYSGRRPDAIRLGLGNHNYCRNPDRDSKPWCYVFKAGKYSSEFCSTPACSEGNSDCYFGNGSAYRGTHSLTESGASCLPWNSMILIGKVYTAQNPSAQALGLGKHNYCRNPDGDAKPWCHVLKNRRLTWEYCDVPSCSTCGLRQYSQPQFRIKGGLFADIASHPWQAAIFAKHRRSPGERFLCGGILISSCWILSAAHCFQERFPPHHLTVILGRTYRVVPGEEEQKFEVEKYIVHKEFDDDTYDNDIALLQLKSDSSRCAQESSVVRTVCLPPADLQLPDWTECELSGYGKHEALSPFYSERLKEAHVRLYPSSRCTSQHLLNRTVTDNMLCAGDTRSGGPQANLHDACQGDSGGPLVCLNDGRMTLVGIISWGLGCGQKDVPGVYTKVTNYLDWIRDNMRP
notes: thrombolytic agent, used at 0.1 mg/ml
- STBL efficacy (FIG. 1), in words: improved STBL efficacy
